{"source": "paper PMC3839580", "about": "(Journal of the American Chemical Society, 2013)", "key": {"[1]": {"assay": "Size exclusion chromatography of DMPC-based peptide nanoparticles", "assay_type": "physicochemical", "conditions": "construct 300 μM, PBS, overnight, Superdex 200, standard curve of four globular proteins"}, "[2]": {"conditions": "thought: two apoA-I molecules (10 helices/molecule) reside in discoidal HDL particles; cited from earlier work"}, "plasma total cholesterol": {"system": "plasma total cholesterol", "conditions": "cited from earlier work"}, "[3]": {"conditions": "cited from earlier work"}}, "note": "Several values for one entry are separate records, joined by “and”; a condition that tells them apart may be missing. Identical values can stand only once.", "data": [{"substance": "apoA-I: Apolipoprotein A-I, the primary structural protein within HDL particles", "values": [{"measurement": "SEC Stokes diameter", "setting": "[1]", "result": "15 nm and 10 nm"}, {"measurement": "helices per particle (value in parentheses)", "setting": "[2]", "result": 20}, {"measurement": "reduction in plasma cholesterol levels, in words", "setting": "plasma total cholesterol", "result": "neither apoA-I nor rHDLs cause significant reduction"}, {"measurement": "plasma half-life in mice", "setting": "[3]", "result": 11, "unit": "h"}]}]}
